The values below come from US20220339270A1.

Assay [1] deals with extracellular tau in the form of paired helical filaments (ePHF tau) (UniProt P10636). As to the kind of experiment: anti-eTau ELISA of ExpiCHO supernatant, concentration of tau-binding antibody.
Assay [2] addresses wild-type tau (Tau441) (human) (UniProt P10636). As to the kind of experiment: ELISA, Tau441 on plate; antibody at […].
Assay [3] has the same target. As to the kind of experiment: ELISA, Tau441 on plate; antibody at 4.1 ng/mL.
The target is the same in assay [4]. As to the kind of experiment: ELISA, Tau441 on plate; antibody at 12.3 ng/mL.
Assay [5] shares this target. As to the kind of experiment: ELISA, Tau441 on plate; antibody at 37.0 ng/mL.
For assay [6] the target is unchanged. The assay is described as follows: ELISA, Tau441 on plate; antibody at 111.1 ng/mL.
Assay [7] shares this target. As to the kind of experiment: ELISA, Tau441 on plate; antibody at 333.3 ng/mL.
For assay [8] the target is unchanged. The assay is described as follows: ELISA, Tau441 on plate; antibody at 1000.0 ng/mL.
Assay [9] has the same target. The assay is described as follows: ELISA, Tau441 on plate; antibody at 0.0 ng/mL [sic].

Sequence of extracellular tau in the form of paired helical filaments (ePHF tau) (P10636 other isoform, or with tags, fused parts or gaps limits assumed): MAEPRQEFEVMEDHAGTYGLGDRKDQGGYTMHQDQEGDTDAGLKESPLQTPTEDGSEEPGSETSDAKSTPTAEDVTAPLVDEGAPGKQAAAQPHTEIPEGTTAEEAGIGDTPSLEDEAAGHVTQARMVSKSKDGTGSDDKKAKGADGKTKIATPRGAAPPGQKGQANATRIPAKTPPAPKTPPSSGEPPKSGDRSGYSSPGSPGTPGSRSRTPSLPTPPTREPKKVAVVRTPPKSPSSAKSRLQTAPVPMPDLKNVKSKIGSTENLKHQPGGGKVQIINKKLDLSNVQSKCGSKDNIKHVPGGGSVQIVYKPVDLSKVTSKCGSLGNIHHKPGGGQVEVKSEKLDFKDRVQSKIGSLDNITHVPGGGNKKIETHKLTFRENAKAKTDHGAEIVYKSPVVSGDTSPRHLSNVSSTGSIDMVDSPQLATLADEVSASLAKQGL
Sequence of wild-type tau (Tau441) (human) (P10636 other isoform, or with tags, fused parts or gaps limits assumed): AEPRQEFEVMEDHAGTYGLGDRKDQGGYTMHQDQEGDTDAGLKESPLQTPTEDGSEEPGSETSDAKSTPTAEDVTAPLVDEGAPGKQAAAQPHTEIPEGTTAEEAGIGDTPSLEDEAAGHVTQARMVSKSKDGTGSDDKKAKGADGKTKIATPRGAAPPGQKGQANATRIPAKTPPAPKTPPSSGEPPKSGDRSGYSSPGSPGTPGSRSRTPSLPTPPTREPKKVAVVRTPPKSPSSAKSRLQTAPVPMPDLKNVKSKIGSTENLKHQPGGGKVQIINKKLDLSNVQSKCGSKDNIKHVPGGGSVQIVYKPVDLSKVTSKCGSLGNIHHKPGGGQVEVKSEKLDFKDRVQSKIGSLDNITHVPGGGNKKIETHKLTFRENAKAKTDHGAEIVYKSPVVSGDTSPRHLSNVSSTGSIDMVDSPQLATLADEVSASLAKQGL

For the substance “PHF1 antibody expressed from viral genome construct TAU_ITR70 (PHF-1 LF2AH) (antibody; other documents disagree on this pair)”, the anti-eTau ELISA antibody concentration in assay [1] turned out to be 4280 ng/mL.

For “PHF1 antibody expressed from viral genome construct TAU_ITR86 (PHF-1 LF2AH) (antibody; other documents disagree on this pair)”, in [1], the anti-eTau ELISA antibody concentration was determined as 1530 ng/mL.

In turn, “PHF1 antibody expressed from viral genome construct TAU_ITR85 (PHF-1 HF.F2AL) (antibody; other documents disagree on this pair)” returned an anti-eTau ELISA antibody concentration in assay [1] of 18.8 ng/mL.

For the substance “Tau5 (anti-tau, 210-230; BioLegend cat #806401) (antibody)”, the OD450 in [2] was 0.2 OD450; in assay [3] it was 0.6 OD450; in assay [4], 1.2 OD450; in assay [5] it was 2.6 OD450; in assay [6], 3.3 OD450; in [7] it was 3.3 OD450. The OD450 in [8] is 3.3 OD450; in assay [9], 0.1 OD450.

Take “PHF-13 (anti-tau phospho Ser396; BioLegend cat #829001) (antibody)”: the OD450 in assay [2] turned out to be 0 OD450; in assay [3] it was 0 OD450; in assay [4], 0.1 OD450; in assay [5], 0 OD450; in [6] it was 0.1 OD450; in assay [7], 0.1 OD450. Further, the OD450 in [8] was 0.1 OD450; in [9] it was 0 OD450.

Turning to “Tau46 (anti-tau, 404-421; BioLegend cat #806601) (antibody)”, the OD450 worked out at 0.2 OD450 in assay [2]; 0.4 OD450 in [3]; 1 OD450 in assay [4]; 2 OD450 in assay [5]; 3 OD450 in [6]; 3.2 OD450 in [7]. Moreover, the OD450 in assay [8] was 3.2 OD450; in [9], 0.1 OD450.

As to “43D (anti-tau, 1-100; BioLegend cat #816601) (antibody)”, the OD450 in assay [2] turned out to be 0.4 OD450; in assay [3], 0.9 OD450; in [4], 2 OD450; in assay [5], 3 OD450; in [6], 3.2 OD450; in [7], 3.3 OD450. In addition, the OD450 in assay [8] was 3.2 OD450; in assay [9] it was 0 OD450.
